According to patent publication US20250213715A1, “ANTI-CSPG4 BINDING AGENTS, CONJUGATES THEREOF AND METHODS OF USING THE SAME” (Ardeagen Corporation, priority 2020, published 2025):

Assays:
[1] = molecular target: T1, CSPG4 (chondroitin sulfate proteoglycan 4) on human tumor cell lines (human, UniProt Q6UVK1 30-2322); test: flow cytometry on A2058 melanoma cells, 8-point dose curve, anti-hIgG-AF488
T1 construct: Endogenous CSPG4 on human cell lines (A2058, Malme-3M, A375, SW1353, NCI-H2052); also called HMW MAA; MCSP
Method: (§1) Flow Cytometry—Cells were rinsed with PBS (phosphate buffered saline, pH 7.4) and harvested with Versene (Thermo Fisher) prior to incubation with FACs buffer (PBS+1% fetal bovine serum (FBS; source BioSun) containing test antibody or ADCs for 1 h at 4° C. Cells were rinsed and washed with FACs buffer (PBS+1% FBS) and detection was performed with anti-bigG-AF488. Cells were analyzed on a FACs Canto II (BD Biosciences). Quantitative FACs (qFACs) was performed to measure the number of antigen binding sites with the DAKO QifiKit (DAKO, Carpinteria, CA), according to the manufacturer's directions.
(§2) FACs binding of ARD107 antibody and corresponding conjugates to CSPG4-positive cell lines was conducted. The melanoma A2058 and Malme-3M, the SW1353 chondrosarcoma, and the NCI-H1975 lung cell lines were incubated with increasing concentrations (8-point dose curve) of the antibody, conjugates (ARD107-vcMMAE or ARD107-SN38 (ARD107-CL2A-SN-38)), or isotype control (hIgG1) for 1 hr at 4° C. Detection was done with an anti-hIgG-AF488 secondary antibody.

[2] = molecular target: T1, CSPG4 (chondroitin sulfate proteoglycan …); test: flow cytometry on SW1353 chondrosarcoma cells, 8-point dose curve, anti-hIgG-AF488
Method: as §1, §2

[3] = molecular target: T1, CSPG4 (chondroitin sulfate proteoglycan …); test: flow cytometry on NCI-H2052 lung cells, 6-point dose curve, anti-hIgG-AF488
Method: as §1
(§3) The CSPG4+A2058 and A375 melanoma and the lung NCI-H2052 and NCI-H1975 cell lines were incubated with increasing concentrations of the antibody (6-point dose curve) for 1 hr at 4° C. Detection was done with an anti-hIgG-AF488 secondary antibody.
(§4) The data were graphed and estimated binding constants (EC50 in table) were determined with Prism (GraphPad Software, San Diego, CA).

[4] = molecular target: T1, CSPG4 (chondroitin sulfate proteoglycan …); test: flow cytometry on A375 melanoma cells, 6-point dose curve, anti-hIgG-AF488
Method: as §1, §3, §4

[5] = molecular target: T1, CSPG4 (chondroitin sulfate proteoglycan …); test: flow cytometry on A2058 melanoma cells, 6-point dose curve, anti-hIgG-AF488
Method: as §1, §3, §4

[6] = molecular target: T1, CSPG4 (chondroitin sulfate proteoglycan …); test: flow cytometry on Malme-3M melanoma cells, 8-point dose curve, anti-hIgG-AF488
Method: as §1, §2

T1 sequence (Q6UVK1 30-2322 limits assumed): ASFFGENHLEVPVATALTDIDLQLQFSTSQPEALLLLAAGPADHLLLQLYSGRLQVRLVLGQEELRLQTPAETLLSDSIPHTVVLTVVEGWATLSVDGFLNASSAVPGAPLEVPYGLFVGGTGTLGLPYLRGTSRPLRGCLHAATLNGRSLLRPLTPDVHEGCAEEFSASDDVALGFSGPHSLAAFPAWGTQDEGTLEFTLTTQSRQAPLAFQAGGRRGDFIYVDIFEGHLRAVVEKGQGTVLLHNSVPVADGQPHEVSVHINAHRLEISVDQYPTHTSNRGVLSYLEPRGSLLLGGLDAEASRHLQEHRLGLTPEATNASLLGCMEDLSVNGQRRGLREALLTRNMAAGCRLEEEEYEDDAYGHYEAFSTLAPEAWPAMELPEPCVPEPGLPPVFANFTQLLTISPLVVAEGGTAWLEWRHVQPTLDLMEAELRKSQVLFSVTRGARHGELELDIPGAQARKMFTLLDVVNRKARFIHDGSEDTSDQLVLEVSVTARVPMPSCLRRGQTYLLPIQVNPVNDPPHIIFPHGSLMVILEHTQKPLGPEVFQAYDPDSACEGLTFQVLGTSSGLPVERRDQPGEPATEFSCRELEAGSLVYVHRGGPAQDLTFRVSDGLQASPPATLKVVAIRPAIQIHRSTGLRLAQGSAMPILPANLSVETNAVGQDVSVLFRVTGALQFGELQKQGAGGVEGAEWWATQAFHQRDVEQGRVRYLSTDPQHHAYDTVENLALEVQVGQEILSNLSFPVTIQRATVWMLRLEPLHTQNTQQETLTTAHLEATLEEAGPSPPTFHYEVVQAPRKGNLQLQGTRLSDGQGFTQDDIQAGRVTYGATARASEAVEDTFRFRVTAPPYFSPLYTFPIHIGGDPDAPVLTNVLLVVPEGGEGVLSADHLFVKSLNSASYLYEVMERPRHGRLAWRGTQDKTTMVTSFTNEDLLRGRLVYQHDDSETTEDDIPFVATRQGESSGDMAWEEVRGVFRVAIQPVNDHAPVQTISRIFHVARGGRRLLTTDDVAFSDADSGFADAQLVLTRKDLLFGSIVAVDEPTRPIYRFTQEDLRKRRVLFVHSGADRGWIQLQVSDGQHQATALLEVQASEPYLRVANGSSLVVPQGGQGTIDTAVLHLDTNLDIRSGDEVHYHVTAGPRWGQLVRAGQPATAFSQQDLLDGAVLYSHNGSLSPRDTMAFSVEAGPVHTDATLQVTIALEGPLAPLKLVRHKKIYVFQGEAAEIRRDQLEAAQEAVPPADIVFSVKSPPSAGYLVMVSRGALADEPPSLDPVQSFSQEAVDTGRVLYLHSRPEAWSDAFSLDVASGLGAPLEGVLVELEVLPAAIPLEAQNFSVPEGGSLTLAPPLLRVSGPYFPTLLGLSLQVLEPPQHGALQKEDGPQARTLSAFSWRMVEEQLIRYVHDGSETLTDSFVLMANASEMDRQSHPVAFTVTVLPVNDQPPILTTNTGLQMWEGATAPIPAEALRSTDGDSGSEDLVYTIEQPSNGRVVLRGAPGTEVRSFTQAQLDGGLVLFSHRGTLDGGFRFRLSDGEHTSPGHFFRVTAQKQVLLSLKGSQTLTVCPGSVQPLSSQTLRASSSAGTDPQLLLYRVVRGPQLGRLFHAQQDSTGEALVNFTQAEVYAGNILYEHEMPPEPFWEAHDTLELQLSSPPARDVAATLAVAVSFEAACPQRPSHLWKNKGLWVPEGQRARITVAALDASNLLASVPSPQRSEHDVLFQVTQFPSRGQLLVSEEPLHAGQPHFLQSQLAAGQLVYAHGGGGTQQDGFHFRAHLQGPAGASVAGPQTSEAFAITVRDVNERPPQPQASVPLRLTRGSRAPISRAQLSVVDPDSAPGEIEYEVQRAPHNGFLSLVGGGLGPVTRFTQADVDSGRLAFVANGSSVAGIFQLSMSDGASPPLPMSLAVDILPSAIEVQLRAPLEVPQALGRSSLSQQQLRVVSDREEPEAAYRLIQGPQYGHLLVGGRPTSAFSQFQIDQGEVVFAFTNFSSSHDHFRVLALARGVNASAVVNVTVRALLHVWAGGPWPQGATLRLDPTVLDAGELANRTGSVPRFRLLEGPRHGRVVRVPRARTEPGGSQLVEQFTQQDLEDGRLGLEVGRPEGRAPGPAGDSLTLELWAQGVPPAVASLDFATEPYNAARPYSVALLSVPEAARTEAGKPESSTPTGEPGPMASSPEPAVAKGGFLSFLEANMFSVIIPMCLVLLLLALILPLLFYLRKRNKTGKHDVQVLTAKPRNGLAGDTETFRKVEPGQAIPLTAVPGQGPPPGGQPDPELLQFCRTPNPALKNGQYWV

EC50 [1]: 0.48 nM
EC50 [2]: 0.21 nM
EC50 [3]: 0.3 nM
EC50 [4]: 0.19 nM
EC50 [5]: 0.24 nM
EC50 [6]: 0.59 nM
B1: ARD107 antibody (antibody, human IgG1, kappa, V domains shown)
VH: EVQLQESGPGLVKPSQSLSLTCSVTGYSITSGYYWNWIRQFPGNKLEWMGYITYDGSNNYNPSLKNRISITRDTSKNQFFLKLNSVTTEDTATYYCADFDYWGQGTTLTVSS
VL: DIVLTQSPSSLSASLGDRVTISCSASQGIRNYLNWYQQRPDGTVKLLIYYTSSLHSGVPSRFSGSGSGTDYSLTISNLEPEDIATYYCQQYSKLPWTFGGGTKLEIKR
notes: also called unconjugated ARD107 monoclonal antibody
